Ends that are not written are not given here. * marks the point of attachment. Biotin = O=C1N[C@H]2[C@H](CS[C@H]2CCCCC(=O)*)N1

The nature of data set [1]: Circular dichroism spectroscopy of LSALT peptide and analogs. Particulars: for Inducible Helical Structure (50% TFE-benign) / [θ] (222 nm) 50% TFE / % Inducible Helical Structure (Inducible/50% TFE) / [θ] (222 nm) Benign (No TFE): 222 nm; for % Inducible Helical Structure (Inducible/50% TFE): 50% TFE is considered 100% folded; for [θ] (222 nm) Benign (No TFE): benign buffer (100 mM KCl, 50 mM Na2HPO4/NaH2PO4, pH 7.0). In kind it is physicochemical. More on the design: Inducible Helical Structure (50% TFE-benign): unit not given here. The procedure:
The physical and chemical properties of protein therapeutics are critical factors that influence the ease of manufacturing, development and clinical use. The LSALT peptide was evaluated in terms of its solubility, aggregation state and stability using a variety of biophysical methods.
In circular dichroism spectroscopy the ellipticity value at 222 nm is a measure of a-helical content. 50% trifluoroethanol is a hydrophobic solvent and induces α-helical structure if the structure can be induced. All of the peptides tested can be induced to adopt α-helical structure. The peptides are random coils in benign conditions (non-denaturing). The buffer conditions were aqueous phosphate, pH 7.0.

The target of the next data set is T1, DPEP1 (Homo sapiens, UniProt P16444).
T1 sequence (P16444 17-385): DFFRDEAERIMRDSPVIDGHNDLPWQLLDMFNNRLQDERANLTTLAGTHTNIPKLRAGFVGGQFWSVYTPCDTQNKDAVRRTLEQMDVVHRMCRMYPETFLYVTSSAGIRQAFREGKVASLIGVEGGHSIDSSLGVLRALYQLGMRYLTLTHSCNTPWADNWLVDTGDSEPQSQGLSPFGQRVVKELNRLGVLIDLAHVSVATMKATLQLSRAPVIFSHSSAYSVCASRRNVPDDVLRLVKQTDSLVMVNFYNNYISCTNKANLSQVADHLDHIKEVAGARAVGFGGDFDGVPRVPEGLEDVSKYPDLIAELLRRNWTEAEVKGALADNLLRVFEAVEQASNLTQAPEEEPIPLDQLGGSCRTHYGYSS
As to the kind of experiment: Alanine-substituted peptide binding to DPEP1 transfected HEK 293 cells, immunofluorescence. More on the design: expressed in transfected cells; host or cells: HEK 293. The settings on record: test peptide at 5 uM, 1 hr at room temperature. The procedure:
[…] were transfected with DPEP1 or DPEP2, two days prior to assay and were plated onto collagen-coated coverslips one day prior. Then fixed 10 min with 3.7% formaldehyde in PBS, washed 3 times in PBS, incubated with Alanine-substituted test peptide at 5 uM each, 1 hr at room temperature, washed twice with PBS gently, incubated with 1/50 Alexa 568-straptavadin in PBS, 1 hr at room temperature, washed twice with PBS gently and added DAPI Mounted with DAKO Fluorescent mounting media and evaluated for binding under fluorescence microscope.

Data set [2] concerns the target T2, human membrane dipeptidase (DPEP-1) (Homo sapiens, UniProt P16444).
T2 construct: expressed in transfected cells; host or cells: Cos-1
T2 sequence (P16444 17-385): T1 sequence (P16444 17-385)
The data set is described as follows: Membrane dipeptidase enzyme activity assay (Gly-D-Phe, fluorometric). In kind it is biochemical. Particulars: lysates of transfected Cos1 cells, substrate Gly-D-Phe. As to the method: 24 hours after transfection, DPEP-1 expressing cells weer reseeded on 24 well collagen coated (neutralized) plates and allowed to grow for 24 hours at 37° C. […] Cells were blocked with FBS/NBSA/Tween in PBS for 30 minutes on ice. […] After incubation, cells were washed with PBS and stained with DAPI for 4 minutes on ice. Cells were again washed with PBS, fixed using 4% paraformaldehyde and immunofluoresence microscopy was performed to assess binding. Proteins from human DPEP-1 transfected cells were isolated after 48 hours using octyl-glucoside/RIPA in the absence of protease inhibitors. […] Proteins from transfected cells were isolated after 48 hours using octyl-glucoside/RIPA lysis buffer and western blot analysis was performed to assess DPEP-1 expression using DPEP-1 antibody (Sigma).
The fluorescence signal generated from the conversion of D-Phe to […] in the presence of D-aminoacidoxidase and peroxidase was measured using a fluorescence plate reader.
Proteins from DPEP-1 transfected cells were isolated after 48 hours using octyl-glucoside/RIPA lysis buffer and western blot analysis was performed to assess DPEP-1 expression using a DPEP-1 specific antibody (Proteintech) (FIG. 24B).

For Bio-LSALAPSPSWLKYKAL [Peptide A5], in data set [1], the “Inducible Helical Structure (50% TFE-benign)” value is given as 29,755, the “[θ] (222 nm) 50% TFE” value is reported as −79198, the “% Inducible Helical Structure (Inducible/50% TFE)” value (shortened to “% Inducible Helical Structure”) turned out to be 37.6% and the “[θ] (222 nm) Benign (No TFE)” value is reported as −49443.

For Bio-LSGLTPSPSWLKYKAL [Peptide A3], in data set [1], the “Inducible Helical Structure (50% TFE-benign)” value is 18,865, the “[θ] (222 nm) 50% TFE” value was −68580, the “% Inducible Helical Structure” value is reported as 27.5% and the “[θ] (222 nm) Benign (No TFE)” value is −49714.

Regarding “Bio-LSALTPSPSWLKYAAL (Biotin-LSALTPSPSWLKYAAL) [Peptide A14]”, in data set [1], the “Inducible Helical Structure (50% TFE-benign)” value was 14,068, the “[θ] (222 nm) 50% TFE” value is recorded as −39862, the “% Inducible Helical Structure” value was found to be 35.3% and the “[θ] (222 nm) Benign (No TFE)” value was −25794.

In the case of Bio-LSALTPSPAWLKYKAL [Peptide A9], in data set [1], the “Inducible Helical Structure (50% TFE-benign)” value is recorded as 13,436, the “[θ] (222 nm) 50% TFE” value is on record as −62889, the “% Inducible Helical Structure” value was 21.4% and the “[θ] (222 nm) Benign (No TFE)” value is on record as −49453.

Turning to LSALAPSPSWLKYKAL [Pos 5], the “binding to DPEP-1 by immunofluorescence (alanine mutants)” value (shortened to “binding to DPEP-1 by immunofluorescence”) in the data set with DPEP1 was “decreased and increased binding to DPEP-1”.

With Bio-LSALTPSASWLKYKAL [Peptide A8], in data set [1], the “Inducible Helical Structure (50% TFE-benign)” value is listed as 9,444, the “[θ] (222 nm) 50% TFE” value is −42335, the “% Inducible Helical Structure” value is on record as 22.3% and the “[θ] (222 nm) Benign (No TFE)” value is reported as −32890.

Take “Bio-LSALTPSPSWLKYKAL-amide (Biotin-LSALTPSPSWLKYKAL-NH2) [Peptide A19]”: in data set [1], the “Inducible Helical Structure (50% TFE-benign)” value is listed as 77,996, the “[θ] (222 nm) 50% TFE” value is on record as −153947, the “% Inducible Helical Structure” value turned out to be 50.7% and the “[θ] (222 nm) Benign (No TFE)” value is reported as −75952.

For the compound “Bio-LSALTPSPSWLKAKAL (Biotin-LSALTPSPSWLKAKAL) [Peptide A13]”, in data set [1], the “Inducible Helical Structure (50% TFE-benign)” value is listed as 31,488, the “[θ] (222 nm) 50% TFE” value is given as −80841, the “% Inducible Helical Structure” value worked out at 39.0% and the “[θ] (222 nm) Benign (No TFE)” value is given as −49352.

With “Ac-LSALTPSPSWLKYKAL-amide (Ac-LSALTPSPSWLKYKAL-NH2) [Peptide A18]”, in data set [1], the “Inducible Helical Structure (50% TFE-benign)” value is given as 40,612, the “[θ] (222 nm) 50% TFE” value was −78951, the “% Inducible Helical Structure” value is 51.4% and the “[θ] (222 nm) Benign (No TFE)” value is −38340.

Regarding “Bio-LSALTPSPSWLKYKAA (Biotin-LSALTPSPSWLKYKAA) [Peptide A16]”, in data set [1], the “Inducible Helical Structure (50% TFE-benign)” value was 11,796, the “[θ] (222 nm) 50% TFE” value is recorded as −37070, the “% Inducible Helical Structure” value was 31.8% and the “[θ] (222 nm) Benign (No TFE)” value is reported as −25275.

In the case of LSALTPSPSALKYKAL [Pos 10], the “binding to DPEP-1 by immunofluorescence” value in the data set with DPEP1 is “decreased and increased binding to DPEP-1”.

“Bio-LSALTPSPSWLAYKAL (Biotin-LSALTPSPSWLAYKAL) [Peptide A12]”: in data set [1], the “Inducible Helical Structure (50% TFE-benign)” value is given as 8,451, the “[θ] (222 nm) 50% TFE” value was −36742, the “% Inducible Helical Structure” value is listed as 23.0% and the “[θ] (222 nm) Benign (No TFE)” value is recorded as −28292.

Take Bio-LSALTPAPSWLKYKAL [Peptide A7]: in data set [1], the “Inducible Helical Structure (50% TFE-benign)” value is 20,988, the “[θ] (222 nm) 50% TFE” value was −70198, the “% Inducible Helical Structure” value is reported as 29.9% and the “[θ] (222 nm) Benign (No TFE)” value is on record as −49209.

As for LSALTPSPSWLAYKAL [Pos 12], the “binding to DPEP-1 by immunofluorescence” value in the data set with DPEP1 was “decreased and increased binding to DPEP-1”.

Turning to `CC(C)(S)[C@@H](N)C(=O)O` [Penicillamine], the entries for the “inhibition of human DPEP1 enzymatic activity” value in data set [2] and in data set [2] (listed as penicillamine) were “inhibited the activity” and “can be inhibited”, respectively.

On to Bio-LAALTPSPSWLKYKAL [Peptide A2], for which, in data set [1] (50% trifluoroethanol), the “inducible α-helical structure (in words)” value is “significantly enhances inducible α-helical structure”. In data set [1], the “Inducible Helical Structure (50% TFE-benign)” value was 51,374, the “[θ] (222 nm) 50% TFE” value is listed as −117502, the “% Inducible Helical Structure” value is reported as 43.7% and the “[θ] (222 nm) Benign (No TFE)” value is −66128.

“Bio-LSALTPSPSWLKYKGL (Biotin-LSALTPSPSWLKYKGL) [Peptide A15]”: in data set [1], the “Inducible Helical Structure (50% TFE-benign)” value is given as 23,450, the “[θ] (222 nm) 50% TFE” value was −92167, the “% Inducible Helical Structure” value turned out to be 25.4% and the “[θ] (222 nm) Benign (No TFE)” value is −68717.

For ASALTPSPSWLKYKAL [Pos 1], the “binding to DPEP-1 by immunofluorescence” value with DPEP1 is “decreased and increased binding to DPEP-1”.

Turning to Bio-LSAATPSPSWLKYKAL [Peptide A4], in data set [1], the “Inducible Helical Structure (50% TFE-benign)” value is reported as 16,397, the “[θ] (222 nm) 50% TFE” value is given as −76916, the “% Inducible Helical Structure” value stood at 21.3% and the “[θ] (222 nm) Benign (No TFE)” value is listed as −60519.

As for “Bio-LSALTPSPSWAKYKAL (Biotin-LSALTPSPSWAKYKAL) [Peptide A11]”, in data set [1], the “Inducible Helical Structure (50% TFE-benign)” value was 21,682, the “[θ] (222 nm) 50% TFE” value is on record as −80196, the “% Inducible Helical Structure” value was found to be 27.0% and the “[θ] (222 nm) Benign (No TFE)” value was −58514.

As to “Bio-ASALTPSPSWLKYKAL (Biotin-ASALTPSPSWLKYKAL) [Peptide A1]”, in data set [1], the “Inducible Helical Structure (50% TFE-benign)” value was 37,752, the “[θ] (222 nm) 50% TFE” value is recorded as −119807, the “% Inducible Helical Structure” value is on record as 31.5% and the “[θ] (222 nm) Benign (No TFE)” value is given as −82054.

Consider “Bio-LSALTPSPSALKYKAL (Biotin-LSALTPSPSALKYKAL) [Peptide A10]”, for which, in data set [1], the “Inducible Helical Structure (50% TFE-benign)” value is listed as 9,583, the “[θ] (222 nm) 50% TFE” value is recorded as −35792, the “% Inducible Helical Structure” value was 26.8% and the “[θ] (222 nm) Benign (No TFE)” value is on record as −26209.

Bio-LSALTGSPSWLKYKAL [Peptide A6]: in data set [1], the “Inducible Helical Structure (50% TFE-benign)” value is 28,435, the “[θ] (222 nm) 50% TFE” value is recorded as −70926, the “% Inducible Helical Structure” value is 40.1% and the “[θ] (222 nm) Benign (No TFE)” value is given as −42491.

Take Ac-LSALTPSPSWLKYKAL [Peptide A17]: in data set [1], the “Inducible Helical Structure (50% TFE-benign)” value is 17,615, the “[θ] (222 nm) 50% TFE” value was −74897, the “% Inducible Helical Structure” value worked out at 23.5% and the “[θ] (222 nm) Benign (No TFE)” value is recorded as −57282.

Take `CC1(C)C[C@@H]1C(=O)N/C(=C\CCCCSC[C@H](N)C(=O)O)C(=O)O` [Cilastatin]: the “inhibition of human DPEP1 enzymatic activity” value in data set [2] is listed as “inhibited the activity”; in data set [2] (listed as cilastatin), “can be inhibited”.

The record behind these values is patent US11286278B2, “DPEP-1 binding agents and methods of use” (Arch Biopartners, Inc., priority 2018, dated 2022).
